Target: H6 hERG 666–872 Flag (human, UniProt Q12809 666-872)
Test: pull-down

H6 hERG 666–872 Flag, sequence (Q12809 666-872): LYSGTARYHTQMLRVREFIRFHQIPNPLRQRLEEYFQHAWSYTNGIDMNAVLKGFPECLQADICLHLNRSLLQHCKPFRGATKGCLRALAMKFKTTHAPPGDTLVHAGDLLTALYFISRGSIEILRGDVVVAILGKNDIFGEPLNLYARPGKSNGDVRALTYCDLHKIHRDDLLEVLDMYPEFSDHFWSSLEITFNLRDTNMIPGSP

B1: GST N1–135 (domain or fragment, human, UniProt Q12809 1-135, looked up)
chain: MPVRRGHVAPQNTFLDTIIRKFEGQSRKFIIANARVENCAVIYCNDGFCELCGYSRAEVMQRPCTCDFLHGPRTQRRAAAQIAQALLGAEERKVEIAFYRKDGSCFLCLVDVVPVKNEDGAVIMFILNFEVVMEK
B1: binds.

— PMC3047612 (The Journal of General Physiology, 2011)
